# In PMC9482650, “Quantitative fragmentomics allow affinity mapping of interactomes” (Nature Communications, 2022):
# Tests used:
# HaCat cell extract preys = experiment: PDZ-AP-MS, biotinylated MBP-PDZ baits; type: binding, human; conditions: for Difference log2: enrichment of prey
# Method: (§1) For PDZ-AP-MS experiments, PDZ domains were cloned as His6-AviTag-MBP-PDZ constructs. For co-expression with BirA, E. coli BL21(DE3) cells were co-transformed with His6-AviTag-MBP, or His6-AviTag-MBP-PDZ-coding and PET21a-BirA (Addgene #20857) plasmids. Simultaneously to IPTG induction, 50 µM biotin was added to the media. After cell harvesting, the lysis buffer was also supplemented with 50 µM biotin. Otherwise, expression and double affinity purification was identical as previously described in details.
# (§2) For PBM-AP-MS experiments, 30 μl streptavidin resin was mixed with biotin or peptide at 50–60 μM concentration in 6–6.5 resin volume for 60 min to achieve resin saturation. For PDZ-AP-MS experiments, 30 μl streptavidin resin was mixed with biotinylated MBP or MBP-PDZ at 40-50 μM concentration in >1000× resin volume for 60 min to achieve resin saturation. After saturation, resins were washed a single time (ten resin volume, holdup buffer), and were depleted with biotin (1 mM biotin, 5–10 resin volume, 10 min). Finally, resins were washed two times. 0.5 ml 2 mg/ml cell lysate was added to the dry resin (1 mg total input) and were incubated at 4 °C for 2 h. Then, the beads were washed three times with 10 resin volume buffer containing: 50 mM TRIS pH 8.5, 150 mM NaCl, 1% TritonX-100, 10× complete EDTA-free protease inhibitor cocktail, 2 mM EDTA, 1 mM TCEP. Then, the beads were washed two times with ten resin volume buffer containing: 50 mM TRIS pH 8.5, 150 mM NaCl, 1 mM TCEP. Finally, captured protein was eluted from the resin in two steps and the eluted fractions were pooled. For each elution the beads were incubated for 30 min with three resin volume buffer containing: 20 mM TRIS pH8.5, 100 mM NaCl, 500 μM TCEP, 8 M Urea. Between each step, the beads were separated by mild centrifugation and the supernatant was removed by gentle pipetting.
# (§3) The samples were precipitated with TCA 20% overnight at 4 °C and centrifuged at 14,000 rpm for 10 min at 4 °C. The protein pellets were washed twice with 1 mL cold acetone and air dried. The protein extracts were solubilized in urea 8 M, reduced with 5 mM TCEP for 30 min, and alkylated with 10 mM iodoacetamide for 30 min in the dark. Double digestion was performed at 37 °C with 500 ng endoproteinase Lys-C for 4 h, followed by fourfold dilution and an overnight digestion with 500 ng trypsin. Peptide mixtures were then desalted on C18 spin-column and dried on Speed-Vacuum.
# (§4) Samples were analyzed using an Ultimate 3000 nano-RSLC (Thermo Scientific, San Jose California) coupled in line with a LTQ-Orbitrap ELITE mass spectrometer via a nano-electrospray ionization source (Thermo Scientific, San Jose California). Peptide mixtures were injected in 0.1% TFA on a C18 Acclaim PepMap100 trap-column (75 µm ID × 2 cm, 3 µm, 100 Å, Thermo Fisher Scientific) for 3 min at 5 µL/min with 2% ACN, 0.1% FA in H2O and then separated on a C18 Accucore nano-column (75 µm ID × 50 cm, 2.6 µm, 150 Å, Thermo Fisher Scientific) at 220 nl/min and 38 °C with a 90 min linear gradient from 5% to 30% buffer B (A: 0.1% FA in H2O/B: 99% ACN, 0.1% FA in H2O), regeneration at 5% B. The mass spectrometer was operated in positive ionization mode, in data-dependent mode with survey scans from m/z 350–1500 acquired in the Orbitrap at a resolution of 120,000 at m/z 400. The 20 most intense peaks from survey scans were selected for further fragmentation in the Linear Ion Trap with an isolation window of 2.0 Da and were fragmented by CID with normalized collision energy of 35%. (TOP20CID method) Unassigned and single charged states were excluded from fragmentation. The Ion Target Value for the survey scans (in the Orbitrap) and the MS2 mode (in the Linear Ion Trap) were set to 1E6 and 5E3 respectively and the maximum injection time was set to 100 ms for both scan modes. Dynamic exclusion was set to 20 s after one repeat count with mass width at ±10 ppm. […]
# HEK293T cells = experiment: Label-free MS proteome of stable cell lines expressing HPV16 E6 or E6ΔPBM; type: cell-based, human; conditions: protein level
# Method: HEK293T and HeLa cells were authenticated and found 100% identity to ATCC cat. CRL-3216 and ATCC cat. CCL-2, respectively. Jurkat and HaCat cell lines were not authenticated (original source: ECACC and Deutsches Krebsforschungszentrum DKFZ, respectively). HeLa cells were grown in DMEM (1 g/L glucose, Gibco) medium completed with 5% FCS and 40 μg/mL gentamicin, diluted every 3rd/4th day 1/10. HaCat cells were grown in DMEM (1 g/L glucose, Gibco) medium completed with 10% FCS and 40 μg/mL gentamicin, diluted every 3rd/4th day 1/4. Jurkat cells were grown in RPMI (Gibco) medium completed with 10% FCS and 40 μg/mL gentamicin, diluted every 3rd/4th day 1/12. All cells were kept at 37 °C and 5% CO2. For proteomics analyses cells were seeded on T-175 flasks. After they reached confluency, adherent cells were washed with PBS once and collected by scraping with ice-cold lysis buffer (Hepes-KOH pH 7.5 50 mM, NaCl 150 mM, Triton X-100 1%, complete EDTA-free protease inhibitor cocktail 1×, EDTA 2 mM, TCEP 5 mM, glycerol 10%). Jurkat cells were collected by 1000 g × centrifugation, washed once with PBS, then collected by 1000 g × 5 min centrifugation again and lysed in ice-cold lysis buffer. Lysates were sonicated 4 × 20 s with 1 s long pulses on ice, then incubated rotating at 4 °C for 30 min. Lysates were centrifuged at 12,000 rpm 4 °C for 20 min and supernatant was kept for further analysis. Concentration determination was carried out by standard Bradford method (Bio-Rad Protein Assay Dye Reagent #5000006) using BSA (MP BIomedicals #160069) as control on a Bio-Rad SmartSpec 3000 spectrophotometer instrument.
# as §3
# Samples were analyzed using an Ultimate 3000 nano-RSLC (Thermo Scientific, San Jose California) coupled in line with a LTQ-Orbitrap ELITE mass spectrometer via a nano-electrospray ionization source (Thermo Scientific, San Jose California). Peptide mixtures were injected in 0.1% TFA on a C18 Acclaim PepMap100 trap-column (75 µm ID × 2 cm, 3 µm, 100 Å, Thermo Fisher Scientific) for 3 min at 5 µL/min with 2% ACN, 0.1% FA in H2O and then separated on a C18 Accucore nano-column (75 µm ID × 50 cm, 2.6 µm, 150 Å, Thermo Fisher Scientific) at 220 nl/min and 38 °C with a 90 min linear gradient from 5% to 30% buffer B (A: 0.1% FA in H2O/B: 99% ACN, 0.1% FA in H2O), regeneration at 5% B. The mass spectrometer was operated in positive ionization mode, in data-dependent mode with survey scans from m/z 350–1500 acquired in the Orbitrap at a resolution of 120,000 at m/z 400. The 20 most intense peaks from survey scans were selected for further fragmentation in the Linear Ion Trap with an isolation window of 2.0 Da and were fragmented by CID with normalized collision energy of 35%. (TOP20CID method) Unassigned and single charged states were excluded from fragmentation. The Ion Target Value for the survey scans (in the Orbitrap) and the MS2 mode (in the Linear Ion Trap) were set to 1E6 and 5E3 respectively and the maximum injection time was set to 100 ms for both scan modes. Dynamic exclusion was set to 20 s after one repeat count with mass width at ±10 ppm.
# Proteins were identified by database searching using SequestHT (Thermo Fisher Scientific) with Proteome Discoverer 2.4 software (PD2.4, Thermo Fisher Scientific) on human FASTA database downloaded from SwissProt (reviewed, release 2020_11_27, 20304 entries, https://www.uniprot.org/). […]
# HeLa cell extract preys = experiment: PDZ-AP-MS, biotinylated MBP-PDZ baits; type: binding, human; conditions: for Ratio: fold enrichment of prey; for Difference: log2 enrichment of prey
# Method: as §1, §2, §3, §4
molecule,measurement,setting,value
"CDH1 (protein, UniProt P12830 155-882, looked up) Cadherin-1: DWVIPPISCPENEKGPFPKNLVQIKSNKDKEGKVFYSITGQGADTPPVGVFIIERETGWLKVTEPLDRERIATYTLFSHAVSSNGNAVEDPMEILITVTDQNDNKPEFTQEVFKGSVMEGALPGTSVMEVTATDADDDVNTYNAAIAYTILSQDPELPDKNMFTINRNTGVISVVTTGLDRESFPTYTLVVQAADLQGEGLSTTATAVITVTDTNDNPPIFNPTTYKGQVPENEANVVITTLKVTDADAPNTPAWEAVYTILNDDGGQFVVTTNPVNNDGILKTAKGLDFEAKQQYILHVAVTNVVPFEVSLTTSTATVTVDVLDVNEAPIFVPPEKRVEVSEDFGVGQEITSYTAQEPDTFMEQKITYRIWRDTANWLEINPDTGAISTRAELDREDFEHVKNSTYTALIIATDNGSPVATGTGTLLLILSDVNDNAPIPEPRTIFFCERNPKPQVINIIDADLPPNTSPFTAELTHGASANWTIQYNDPTQESIILKPKMALEVGDYKINLKLMDNQNKDQVTTLEVSVCDCEGAAGVCRKAQPVEAGLQIPAILGILGGILALLILILLLLLFLRRRAVVKEPLLPPEDDTRDNVYYYDEEGGGEEDQDFDLSQLHRGLDARPEVTRNDVAPTLMSVPRYLPRPANPDEIGNFIDENLKAADTDPTAPPYDSLLVFDYEGSGSEAASLSSLNSSESDKDQDYDYLNEWGNRFKKLADMYGGGEDD",Difference log2,HaCat cell extract preys; bait TX1BP3 PDZ vs MBP,8.222
same,Ratio TX1BP3/MBP,"HaCat cell extract preys; bait TX1BP3 PDZ, fold change of prey",298.682
"BAIAP2L1 (protein, UniProt Q9UHR4 1-511, looked up) BAR/IMD domain-containing …: MSRGPEEVNRLTESTYRNVMEQFNPGLRNLINLGKNYEKAVNAMILAGKAYYDGVAKIGEIATGSPVSTELGHVLIEISSTHKKLNESLDENFKKFHKEIIHELEKKIELDVKYMNATLKRYQTEHKNKLESLEKSQAELKKIRRKSQGSRNALKYEHKEIEYVETVTSRQSEIQKFIADGCKEALLEEKRRFCFLVDKHCGFANHIHYYHLQSAELLNSKLPRWQETCVDAIKVPEKIMNMIEEIKTPASTPVSGTPQASPMIERSNVVRKDYDTLSKCSPKMPPAPSGRAYTSPLIDMFNNPATAAPNSQRVNNSTGTSEDPSLQRSVSVATGLNMMKKQKVKTIFPHTAGSNKTLLSFAQGDVITLLIPEEKDGWLYGEHDVSKARGWFPSSYTKLLEENETEAVTVPTPSPTPVRSISTVNLSENSSVVIPPPDYLECLSMGAAADRRADSARTTSTFKAPASKPETAAPNDANGTAKPPFLSGENPFATVKLRPTVTNDRSAPIIR",Difference log2,HaCat cell extract preys; bait SCRIB_2 PDZ vs MBP,3.855
same,Ratio SCRIB_2/MBP,"HaCat cell extract preys; bait SCRIB_2 PDZ, fold change of prey",14.4736
"PGP (protein, UniProt A6NDG6 1-321, looked up) Glycerol-3-phosphate …: MAAAEAGGDDARCVRLSAERAQALLADVDTLLFDCDGVLWRGETAVPGAPEALRALRARGKRLGFITNNSSKTRAAYAEKLRRLGFGGPAGPGASLEVFGTAYCTALYLRQRLAGAPAPKAYVLGSPALAAELEAVGVASVGVGPEPLQGEGPGDWLHAPLEPDVRAVVVGFDPHFSYMKLTKALRYLQQPGCLLVGTNMDNRLPLENGRFIAGTGCLVRAVEMAAQRQADIIGKPSRFIFDCVSQEYGINPERTVMVGDRLDTDILLGATCGLKTILTLTGVSTLGDVKNNQESDCVSKKKMVPDFYVDSIADLLPALQG",Difference log2 E6/Ctrl,HEK293T cells; E6 cell line vs control,0.3606
same,Ratio E6/Ctrl,HEK293T cells; E6 cell line vs control,1.284
same,Difference log2 dPBM/E6,HEK293T cells; dPBM cell line vs E6 cell line,0.0821
same,Ratio dPBM/E6,HEK293T cells; dPBM cell line vs E6 cell line,1.059
same,Difference log2 dPBM/Ctrl,HEK293T cells; dPBM cell line vs control,0.4427
same,Ratio dPBM/Ctrl,HEK293T cells; dPBM cell line vs control,1.359
"NONO (protein, UniProt Q15233 1-471, looked up) Non-POU domain-containing …: MQSNKTFNLEKQNHTPRKHHQHHHQQQHHQQQQQQPPPPPIPANGQQASSQNEGLTIDLKNFRKPGEKTFTQRSRLFVGNLPPDITEEEMRKLFEKYGKAGEVFIHKDKGFGFIRLETRTLAEIAKVELDNMPLRGKQLRVRFACHSASLTVRNLPQYVSNELLEEAFSVFGQVERAVVIVDDRGRPSGKGIVEFSGKPAARKALDRCSEGSFLLTTFPRPVTVEPMDQLDDEEGLPEKLVIKNQQFHKEREQPPRFAQPGSFEYEYAMRWKALIEMEKQQQDQVDRNIKEAREKLEMEMEAARHEHQVMLMRQDLMRRQEELRRMEELHNQEVQKRKQLELRQEEERRRREEEMRRQQEEMMRRQQEGFKGTFPDAREQEIRMGQMAMGGAMGINNRGAMPPAPVPAGTPAPPGPATMMPDGTLGLTPPTTERFGQAATMEGIGAIGGTPPAFNRAAPGAEFAPNKRRRY",Ratio,HeLa cell extract preys; bait DLG1_1 PDZ vs MBP control,31.101
same,Difference,HeLa cell extract preys; bait DLG1_1 PDZ vs MBP control,4.959
same,Difference,HeLa cell extract preys; bait SCRIB_2 PDZ (biotinylated MBP-PDZ) vs MBP control,4.7577
same,Ratio,HeLa cell extract preys; bait SCRIB_2 PDZ vs MBP control,27.0527
